Assay results reported in US20220153854A1 (Ablynx, published 2022).

Key:
[1] = biological target: T1, human serum albumin (human, UniProt P02768 25-609); experiment: Gyrolab in-solution affinity, 2 h incubation; 95% CI 7.7-9.0 nM
T1 construct: also called HSA; HAS
Protocol: (§1) Under receptor-controlled measurements a serial dilution of OX40L (ranging from 1.3 μM-0.031 μM), IL-13 (ranging from 0.1 μM-0.25 fM), or serum albumin (ranging from 100 μM-3.2 μM) and a fixed amount of ISVD construct F027100187 (5 nM in case of OX40L, […] in case of IL-13 and 30 nM in case of HSA and cyno SA) were mixed to allow interaction and incubated for either 24 or 48 hours (in case of OX40L and IL-13) or 2 hours (in case of serum albumin) to reach equilibrium.
(§2) Biotinylated human OX40L/IL-13/serum albumin was captured in the microstructures of a Gyrolab Bioaffy 1000 CD, which contains columns of beads and was used as a molecular probe to capture free F027100187 from the equilibrated solution. The mixture of OX40L/IL13/serum albumin and F027100187 (containing free OX40UIL-13/serum albumin, free F027100187 and OX40L/IL13/serum albumin—F027100187 complexes) was allowed to flow through the beads, and a small percentage of free F027100187 was captured, which is proportional to the free ISVD construct concentration. A fluorescently labeled anti-ISVD antibody, ABH0086-Alexa647, was then injected to label any captured F027100187 and after rinsing away excess of fluorescent probe, the change in fluorescence was determined. Fitting of the dilution series was done using Gyrolab Analysis software, where KD- and receptor-controlled curves were analyzed to determine the KD value.

[2] = biological target: T2, cyno IL-13 (cynomolgus monkey, UniProt Q0PW92 21-132); experiment: Gyrolab in-solution affinity, 48 h incubation; 95% CI 9.5-13.9 pM
T2 construct: also called cynomolgus monkey IL-13
T2 sequence (Q0PW92 entry or part of it): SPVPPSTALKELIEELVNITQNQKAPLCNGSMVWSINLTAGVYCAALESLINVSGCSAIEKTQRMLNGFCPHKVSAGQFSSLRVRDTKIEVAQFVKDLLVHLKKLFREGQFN
Protocol: as §1, §2

[3] = biological target: T3, cyno OX40L (cynomolgus monkey, UniProt G7NVH7 51-183); experiment: Gyrolab in-solution affinity, 48 h incubation; 95% CI 225-326 pM
T3 construct: also called cyOX40L; cynomolgus monkey OX40L
T3 sequence: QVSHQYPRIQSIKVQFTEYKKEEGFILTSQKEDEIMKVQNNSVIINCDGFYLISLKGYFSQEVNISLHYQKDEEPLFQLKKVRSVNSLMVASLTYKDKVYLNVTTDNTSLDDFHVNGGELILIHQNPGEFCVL
Protocol: as §1, §2

[4] = biological target: T4, cyno serum albumin (cynomolgus monkey); experiment: Gyrolab in-solution affinity, 2 h incubation; 95% CI 8.3-10.9 nM
T4 construct: also called cyno SA; cynomolgus monkey serum albumin
T4 sequence (A2V9Z4 25-608): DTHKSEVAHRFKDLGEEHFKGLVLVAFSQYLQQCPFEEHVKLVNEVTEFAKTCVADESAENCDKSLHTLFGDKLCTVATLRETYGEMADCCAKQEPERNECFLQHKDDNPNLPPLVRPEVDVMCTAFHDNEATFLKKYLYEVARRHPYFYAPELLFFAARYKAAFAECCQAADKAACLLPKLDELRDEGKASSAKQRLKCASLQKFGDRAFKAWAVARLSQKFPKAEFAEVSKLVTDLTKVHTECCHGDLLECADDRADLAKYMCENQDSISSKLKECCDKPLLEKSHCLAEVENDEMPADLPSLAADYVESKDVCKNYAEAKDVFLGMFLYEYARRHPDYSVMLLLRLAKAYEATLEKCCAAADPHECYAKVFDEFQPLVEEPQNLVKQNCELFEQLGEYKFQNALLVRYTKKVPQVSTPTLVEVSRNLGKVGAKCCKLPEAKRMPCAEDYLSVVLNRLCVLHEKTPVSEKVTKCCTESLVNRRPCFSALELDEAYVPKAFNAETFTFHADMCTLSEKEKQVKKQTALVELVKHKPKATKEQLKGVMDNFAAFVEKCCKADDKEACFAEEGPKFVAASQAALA
Protocol: as §1, §2

[5] = biological target: T5, human IL-13 (human, UniProt P35225 35-146, limits assumed); experiment: flow cytometry on CHO-KI cells expressing human OX40L loaded with 100 nM F027100187, dilution series of soluble human IL-13 in the presence of 30 uM HSA (bridging / simultaneous binding; x axis printed as 'Concentration human IL-13-Fc (M)', text says biotinylated IL-13)
T5 construct: Recombinant soluble protein; also called hIL-13; soluble hIL-13
T5 sequence (P35225 35-146 limits assumed): as the sequence (Q0PW92 entry or part of it) above, with S1G, K10R, V42M, N67S, R83H, V100L counted along it
Protocol: Using flow cytometry, it was determined whether ISVD construct F0271000187 can bind simultaneously to recombinant soluble hIL-13 and cell membrane bound hOX40L. […] Subsequently the mixture was incubated with a dilution series of biotinylated IL-13 starting from 500 nM down to […], and incubated for 30 min at 4° C., in the presence of 30 μM HSA. Cells were washed 3 times and subsequently incubated with PE-labelled […] for 30 min at 4° C., washed again. Samples were washed and resuspended in FACS Buffer (D-PBS with 10% FBS and 0.05% sodium azide supplemented with 5 nM TOPRO3). Cell suspensions were then analyzed on a iQuescreener.

[6] = biological target: T6, human OX40L (human, UniProt P23510 51-183); experiment: Gyrolab in-solution affinity, 24 h incubation; 95% CI 108-141 pM
T6 construct: Protein in solution or immobilised (SPR, Gyrolab); construct not described; also called huOX40L; hOX40L
T6 sequence (looked up): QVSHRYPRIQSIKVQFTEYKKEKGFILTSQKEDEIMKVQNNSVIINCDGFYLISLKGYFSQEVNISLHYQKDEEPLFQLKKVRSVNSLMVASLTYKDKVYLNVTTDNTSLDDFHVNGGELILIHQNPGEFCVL
Protocol: as §1, §2

[7] = biological target: T1, human serum albumin; experiment: Gyrolab in-solution affinity, 2 h incubation; 95% CI 5.5-7.6 nM
Protocol: as §1, §2

[8] = biological target: T2, cyno IL-13; experiment: Gyrolab in-solution affinity, 48 h incubation; 95% CI 4.7-7.1 pM
Protocol: as §1, §2

[9] = biological target: T3, cyno OX40L; experiment: Gyrolab in-solution affinity, 24 h incubation; 95% CI 174-218 pM
Protocol: as §1, §2

[10] = biological target: T2, cyno IL-13; experiment: Gyrolab in-solution affinity, 48 h incubation; 95% CI 5.8-7.5 pM
Protocol: as §1, §2

[11] = biological target: T4, cyno serum albumin; experiment: Gyrolab in-solution affinity, 2 h incubation; 95% CI 9.7-10.7 nM
Protocol: as §1, §2

[12] = biological target: T7, rhesus IL-13 (rhesus monkey, UniProt Q864V6 19-132, limits assumed); experiment: Gyrolab in-solution affinity, 48 h incubation; 95% CI 6.8-39.6 pM
T7 construct: also called rhesus monkey IL-13
T7 sequence (Q864V6 19-132 limits assumed): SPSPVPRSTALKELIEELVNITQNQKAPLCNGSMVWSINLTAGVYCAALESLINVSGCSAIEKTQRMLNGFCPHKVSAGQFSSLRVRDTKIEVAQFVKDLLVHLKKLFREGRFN
Protocol: as §1, §2

[13] = biological target: T6, human OX40L; experiment: cell-based or functional assay

T1 sequence (P02768 25-609 limits assumed): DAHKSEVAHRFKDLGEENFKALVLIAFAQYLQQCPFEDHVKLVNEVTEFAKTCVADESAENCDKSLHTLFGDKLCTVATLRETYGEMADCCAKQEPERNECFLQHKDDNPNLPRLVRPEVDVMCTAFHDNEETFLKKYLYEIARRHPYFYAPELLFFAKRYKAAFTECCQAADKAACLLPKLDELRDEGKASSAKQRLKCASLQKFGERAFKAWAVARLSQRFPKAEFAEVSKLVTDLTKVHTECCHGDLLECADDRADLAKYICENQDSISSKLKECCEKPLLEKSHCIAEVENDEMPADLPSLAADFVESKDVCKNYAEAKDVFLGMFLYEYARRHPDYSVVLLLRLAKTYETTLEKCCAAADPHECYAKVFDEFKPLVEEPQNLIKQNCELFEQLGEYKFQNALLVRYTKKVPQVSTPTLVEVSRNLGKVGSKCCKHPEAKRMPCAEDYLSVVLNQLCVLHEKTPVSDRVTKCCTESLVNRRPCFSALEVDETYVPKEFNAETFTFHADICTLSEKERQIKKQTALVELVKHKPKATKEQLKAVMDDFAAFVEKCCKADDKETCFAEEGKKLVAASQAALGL

Kd [1]: 8.3 nM
Kd [2]: 0.0117 nM
Kd [3]: 0.275 nM
Kd [4]: 9.6 nM
EC50 (read off the curve) [5]: ~20 nM
Kd [6]: 0.125 nM
Kd [7]: 6.6 nM
Kd [8]: 0.0059 nM
Kd [9]: 0.196 nM
Kd [10]: 0.0067 nM
Kd [11]: 10.2 nM
Kd [12]: 0.0232 nM
IL-5 IC50 (nM), triculture assay [13]: 1 nM
B1: ISVD construct F027100187 (other)
chain: DVQLVESGGGVVQPGGSLRLSCAASRSIGRYDRMGWYRHRPGEPRELVATITGGSSINYGDSVKGRFTISIDNSKNTVYLQMNSLRPEDTALYYCNFNKYQISRDTWGQGTLVTVSSGGGGSGGGSEVQLVESGGGVVQPGGSLRLSCAASGRTFSSYRMGWFRQAPGKEREFVAALSGDGYSTYTANSVKGRFTISRDNSKNTVYLQMNSLRPEDTALYYCAAKLQYVSGWSYDYPYWGQGTLVTVSSGGGGSGGGSEVQLVESGGGVVQPGGSLRLSCAASGFTFRSFGMSWVRQAPGKGPEWVSSISGSGSDTLYADSVKGRFTISRDNSKNTLYLQMNSLRPEDTALYYCTIGGSLSRSSQGTLVTVSSGGGGSGGGSEVQLVESGGGVVQPGGSLRLSCAASGFTFNNYAMKWVRQAPGKGLEWVSSITTGGGSTDYADSVKGRFTISRDNSKNTLYLQMNSLRPEDTALYYCANVPFGYYSEHFSGLSFDYRGQGTLVTVSSA
notes: Tetravalent, trispecific single-chain construct of four VHH (ISVD) domains: one against OX40L, two against IL-13, one against serum albumin; also called F0271000187; F27100187
